Source: US12134635 (SONNET BIOTHERAPEUTICS, dated 2024)

T1: IL-18 receptor (UniProt Q13478 19-541; O95256 20-599, limits assumed)
T1 sequence (looked up) 1: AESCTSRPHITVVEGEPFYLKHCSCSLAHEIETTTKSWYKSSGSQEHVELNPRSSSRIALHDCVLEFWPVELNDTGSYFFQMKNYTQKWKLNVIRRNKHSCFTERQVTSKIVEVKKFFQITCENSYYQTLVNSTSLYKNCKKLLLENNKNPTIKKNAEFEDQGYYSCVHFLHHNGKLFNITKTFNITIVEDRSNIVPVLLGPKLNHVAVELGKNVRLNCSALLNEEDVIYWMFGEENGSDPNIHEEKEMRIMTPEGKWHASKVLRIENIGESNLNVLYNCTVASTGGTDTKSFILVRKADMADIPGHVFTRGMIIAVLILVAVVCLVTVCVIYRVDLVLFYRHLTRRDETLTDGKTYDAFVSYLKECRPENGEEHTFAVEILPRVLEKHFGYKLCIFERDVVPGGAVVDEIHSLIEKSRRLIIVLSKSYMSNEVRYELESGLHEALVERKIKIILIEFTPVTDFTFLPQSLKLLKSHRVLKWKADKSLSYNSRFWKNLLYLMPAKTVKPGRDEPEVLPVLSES
T1 sequence (looked up) 2: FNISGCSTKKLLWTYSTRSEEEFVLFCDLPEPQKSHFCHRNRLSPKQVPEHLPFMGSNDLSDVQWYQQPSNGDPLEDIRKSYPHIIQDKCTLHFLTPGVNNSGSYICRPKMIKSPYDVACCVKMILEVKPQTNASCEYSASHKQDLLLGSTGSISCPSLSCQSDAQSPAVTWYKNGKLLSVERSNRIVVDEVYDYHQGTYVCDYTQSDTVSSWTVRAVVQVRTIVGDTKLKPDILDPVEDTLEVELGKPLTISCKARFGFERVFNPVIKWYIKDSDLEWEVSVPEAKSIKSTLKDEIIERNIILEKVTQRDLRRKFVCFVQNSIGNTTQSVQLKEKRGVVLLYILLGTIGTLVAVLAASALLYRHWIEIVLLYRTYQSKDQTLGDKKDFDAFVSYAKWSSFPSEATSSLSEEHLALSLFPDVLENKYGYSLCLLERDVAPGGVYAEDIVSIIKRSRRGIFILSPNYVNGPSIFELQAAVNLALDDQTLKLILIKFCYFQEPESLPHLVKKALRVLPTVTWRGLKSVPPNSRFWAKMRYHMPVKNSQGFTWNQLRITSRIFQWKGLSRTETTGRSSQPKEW

B1: hIL-18 Variant A (ligand)
chain: WFGKLESKLSVIRNLNDQVLFIDQGNRPLFEDMTDSDSRDNAPRTIFIISYYKDSQPRGWAVTISVKSEKISTLSSENKIISFKEMNPPDNIKDTKSDIIFFQRSVPGHYNKMQFESSSYEGYFLASEKERDLFKLILKKEDELGDRSIMFTVQNED

Assays:
IL-18 binding protein = IL-18 binding protein (UniProt O95998); assay: Biacore T200 SPR, CM5 chip, IL-18BP as immobilized ligand, hIL-18 titrated, 25 C
IL-18 receptor = target: T1, IL-18 receptor; assay: cell-based or functional assay

Molecule | Kd (IL-18 binding protein) | EC50 (read off the curve), HEK-Blue IL-18 reporter, OD at 640 nM (IL-18 receptor)
Recombinant hIL-18 (NIBSC wildtype) (from UniProt Q14116 37-193) (ligand) | 0.056 nM | –
B1 | – | ~0.03 ng/mL
